From patent publication US20230256057A1

Target: IL-7 receptor (human) (UniProt P16871)
Test: cell-based or functional assay

Sequence of UniProt P16871 (P16871 21-459, chain 1 of 2): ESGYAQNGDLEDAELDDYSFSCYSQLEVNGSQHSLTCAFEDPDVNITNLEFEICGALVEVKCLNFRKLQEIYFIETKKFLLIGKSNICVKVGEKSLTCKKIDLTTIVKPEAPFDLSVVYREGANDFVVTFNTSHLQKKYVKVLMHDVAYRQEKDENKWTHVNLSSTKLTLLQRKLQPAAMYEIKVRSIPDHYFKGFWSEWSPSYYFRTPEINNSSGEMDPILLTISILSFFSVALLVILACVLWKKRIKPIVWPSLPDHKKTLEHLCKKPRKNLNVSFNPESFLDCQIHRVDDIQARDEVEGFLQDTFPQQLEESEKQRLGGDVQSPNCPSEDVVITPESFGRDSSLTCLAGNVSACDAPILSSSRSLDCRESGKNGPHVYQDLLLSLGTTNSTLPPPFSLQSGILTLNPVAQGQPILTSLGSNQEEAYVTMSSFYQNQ
Sequence of UniProt P16871 (P31785 23-369, chain 2 of 2, further chain): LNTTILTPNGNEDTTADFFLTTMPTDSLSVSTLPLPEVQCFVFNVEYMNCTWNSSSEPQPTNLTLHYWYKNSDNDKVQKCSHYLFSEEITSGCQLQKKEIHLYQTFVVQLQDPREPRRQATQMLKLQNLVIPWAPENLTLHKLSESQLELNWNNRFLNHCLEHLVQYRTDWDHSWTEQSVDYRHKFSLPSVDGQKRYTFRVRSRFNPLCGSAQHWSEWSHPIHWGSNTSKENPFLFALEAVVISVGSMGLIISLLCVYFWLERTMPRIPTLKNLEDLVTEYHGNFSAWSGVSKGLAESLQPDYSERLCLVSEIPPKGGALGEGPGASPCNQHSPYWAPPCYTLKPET

## human interleukin-7 fused to human Fc sequence of IgG2 (hIL-7-Fc) (Fc fusion)
  pSTAT5 expression in CD3+ T cells of COVID19+ patients' whole blood, ratio to unstimulated condition; supernatant dilution 1/2.5: 6.5 fold
  pSTAT5 expression in CD3+ T cells of COVID19+ patients' whole blood, ratio to unstimulated condition; supernatant dilution 1/5: 5.7 fold
  pSTAT5 expression in CD3+ T cells of COVID19+ patients' whole blood, ratio to unstimulated condition; supernatant dilution 1/10: 4.9 fold
